Data from patent US20240076386A1 (Pfizer, published 2024).
Changes are numbered by the printed parent chain.

T1: soluble recombinant human L-selectin (human, UniProt P14151 39-332, limits assumed)
T1 sequence (looked up): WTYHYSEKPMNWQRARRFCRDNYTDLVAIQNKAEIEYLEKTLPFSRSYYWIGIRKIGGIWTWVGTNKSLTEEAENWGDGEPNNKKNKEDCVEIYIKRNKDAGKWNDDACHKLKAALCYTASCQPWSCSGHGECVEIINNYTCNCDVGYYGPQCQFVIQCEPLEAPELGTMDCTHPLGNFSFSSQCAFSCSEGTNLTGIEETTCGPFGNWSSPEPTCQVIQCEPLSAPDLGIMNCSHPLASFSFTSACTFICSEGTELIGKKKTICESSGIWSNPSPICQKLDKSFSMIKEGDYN

T2: cynomolgus monkey E-selectin, cell-surface expressed (cynomolgus monkey, UniProt P16581 22-610 (human entry))
T2 construct: also called CHO-cynomolgus monkey E-selectin cells; cynomolgus monkey CHO-E
T2 chain: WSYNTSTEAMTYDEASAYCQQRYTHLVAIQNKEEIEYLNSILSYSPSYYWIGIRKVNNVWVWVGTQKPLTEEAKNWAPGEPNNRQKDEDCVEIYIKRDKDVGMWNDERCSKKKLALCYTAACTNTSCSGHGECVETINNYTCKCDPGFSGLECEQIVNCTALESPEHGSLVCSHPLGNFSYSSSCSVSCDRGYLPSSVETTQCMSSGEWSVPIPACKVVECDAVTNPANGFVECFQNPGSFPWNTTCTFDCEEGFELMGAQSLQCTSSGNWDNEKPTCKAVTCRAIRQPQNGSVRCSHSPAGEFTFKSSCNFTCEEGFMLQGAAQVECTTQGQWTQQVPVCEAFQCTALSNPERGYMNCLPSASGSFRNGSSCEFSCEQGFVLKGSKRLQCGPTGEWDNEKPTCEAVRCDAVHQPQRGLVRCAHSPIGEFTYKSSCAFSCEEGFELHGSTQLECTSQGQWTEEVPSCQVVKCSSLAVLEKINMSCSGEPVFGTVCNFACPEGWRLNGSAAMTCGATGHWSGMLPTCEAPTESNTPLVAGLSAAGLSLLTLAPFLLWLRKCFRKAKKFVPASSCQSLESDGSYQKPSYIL

B1: humanized anti-E-selectin antibody 0841 (antibody, human IgG1, kappa, V domains shown)
VH: EVQLVESGGGLVQPGGSLRLSCAASGYNIRSSYMHWVRQAPGKGLEWVARIDPANGNTIYAEKFKIRFTISADNAKNSAYLQMNSLRAEDTAVYYCAMDLYSTSEYWGQGTLVTVSS
VL: DIQMTQSPSSLSASVGDRVTITCKTSQNINRYLNWYQQKPGKAPKLLIYNANSLQTGVPSRFSGSGSGTDFTLTISSLQPEDFATYFCLQDNSWPLTFGQGTKVEIKR
notes: effector-null human IgG1, kappa
B2: optimized anti-E-selectin antibody 1282 (antibody, human IgG1, kappa, V domains shown)
VH: B1 VH with N28A, S32A, A61V, E62D, K63S, F64V, K65E, I66G
VL: B1 VL with N30E, N50A, N52S, T56S, S93A
notes: as for B1
B3: optimized anti-E-selectin antibody 1284 (antibody, human IgG1, kappa, V domains shown)
VH: B1 VH with N28A, S32A, A61V, K63S, F64V, K65E, I66G
VL: B1 VL with N30E, N50A, N52S, T56S, S93A
notes: as for B1
B4: optimized anti-E-selectin antibody 1444 (antibody, human IgG1, kappa, V domains shown)
VH: B1 VH with N28A, S32A, A61V, E62D, K63S, F64V, K65T, I66G
VL: B1 VL with N30E, N50A, N52S, T56S, S93A
notes: as for B1
B5: optimized anti-E-selectin antibody 1448 (antibody, human IgG1, kappa, V domains shown)
VH: B1 VH with N28A, S32A, A61V, E62D, K63S, F64V, I66E
VL: B1 VL with N30E, N50A, N52S, T56S, S93A
notes: as for B1
B6: anti-E-selectin antibody 0180 chimera (antibody, human IgG1, kappa, V domains shown)
VH: EVQLQQSGAELGKPGTSVKLSCKVSGYKIRSSYMHWVNQRPGKGLEWIGRIDPANGNTIYGDKFKSKATLTSDTSSNTAYIQLSQLKSDDTAIYFCAIDIGTTFDYWGQGVMVTVSS
VL: DIQMTQSPSFLSASVGDRVTINCKASQHINRYLNWYQQKLGEAPKLLIYDANNLQTGIPSRFSGSGSGTDFTLTISSLQPEDVATYFCLQHNSWPNTFGAGTKLELKR
notes: rat VH/VL on effector-null human IgG1 and human kappa
B7: anti-E-selectin antibody 0164 chimera (antibody, human IgG1, kappa, V domains shown)
VH: EVQLQQSGAEFGKPGTSVKLSCKVSGYNIRSSYMHWVNQRPGKGLEWIGRIDPANGNTIYAEKFKIKAILTADSSSNTAYMQLSQLKSDDTAIYFCAMDLYSTSEYWGQGVMVTVSS
VL: B6 VL with A25T, H28N, D50N, N53S, G64A, S76N, H91D, N96L, A100S, L106I
notes: as for B6
B8: anti-E-selectin antibody 0159 chimera (antibody, human IgG1, kappa, V domains shown)
VH: EVQLQQSGAELGKPGTSVKLSCKVSGYNIRSTYMHWVSQRPGKGLEWIGRIDPANGNTIYAEKFKRKATLTADTSSNTAYMQLSQLKSDDRAIYFCAMEVRVSFEYWGQGVMVTVSS
VL: DIQMTQSPSFLSASVGDRVTINCKASQNINKYLDWYQQKLGEGPKLLIYYTNNLHTGIPSRFSGSGSGTDFTLTISSLQPEDVATYFCLQHDSGYTFGAGTKLELKR
notes: as for B6
B9: anti-E-selectin antibody 0170 chimera (antibody, human IgG1, kappa, V domains shown)
VH: EVQLQQSGAELGKPGTSVKLSCKVSGYSIRSTYMHWVNQRPGKGLEWVGRIDPANGNTIYAERFKNKATLTADTSSNTAYMQLSQLKSDDTAIYFCAVEILGIFDYWGQGVMVTVSS
VL: B8 VL with N30D, G43A, I48M, Y50N, N53S, D92N
notes: as for B6
B10: anti-E-selectin antibody 0158 chimera (antibody, human IgG1, kappa, V domains shown)
VH: QVQLKESGPGLVQPSETLSLTCTVSGFSISTYNVHWLRQPPGKGLEWMGMMWSGGSPDYNSALKSRLSISRDTSKNQVFLKMNSLQSEDTTTYYCARWGGGFDYWGQGVMVTVSS
VL: DIVLTQSPTTLSVTPGETVSLSCRASHSIGTNLHWYQQKTNESPRLLIKFTSQSISGIPSRFSASGSGTDFTLNINNVEFDDVSSYFCQQTQSWPLTFGSGTKLEIKR
notes: as for B6
B11: anti-E-selectin antibody 0039 chimera (antibody, human IgG1, kappa, V domains shown)
VH: QVQLKETGPGLVQPTQTLSITCTVSGFSLTGYYMQWVRQTPGKGLEWMGFIRSSGSTEYNSEFKSRLSISRDTSKNQVFLKMNSLKTEDTGVYYCARCPYKYSSFVYVGVMDAWGQGAPVTVSS
VL: EIVMTQSPTSMSTSIGERVTLNCKASQTVGINVDWYQQTPGQPPKLLIYGASNRHTGVPDRFTGSGFGRDFTLTISNVEAEDLAVYCCLQYGSIPHTFGPGTKLELKR
notes: as for B6

These binders were tested against T1, soluble recombinant human L-selectin (assay: direct binding ELISA on immobilized human L-selectin, absorbance at 450 nm).
Procedure: Recombinant histidine tagged human P-, E- or L-selectin (Sino Biologicals), mouse E-selectin (Sino Biologicals), rat E-selectin (Sino Biologicals) and Cynomolgus monkey E-selectin (Sino Biologicals) stock solutions were prepared to a final concentration of 1 μg/mL in phosphate buffered saline without calcium and magnesium. Controls included an L-selectin directed antibody (BioLegend; 304811) or P-selectin directed antibody or a negative control IgG. One hundred μL per well of the diluted recombinant selectin proteins were added into a Ni-NTA HisSorb 96 well plate (Qiagen; 35061). Plates were incubated on an orbital shaker at room temperature for 2 hours. Following the incubation, the plates were washed 3 times with 200 μL of wash buffer (50 mM TRIS [trisaminomethane]; 150 mM sodium chloride; 0.05% polysorbate 20, pH 7.4). To decrease nonspecific binding, plates were treated with 200 μL of blocking buffer (BD Opteia buffer; 555213; BD Biosciences), incubated on an orbital shaker for 1 hour at room temperature and washed as described above. […] One hundred μL specific detection antibodies (described below) were added and incubated for 1 hour: [0556] […] Anti L-selectin and anti-rat-E-selectin antibodies were detected using 1 to 25000 dilution of Peroxidase-conjugated AffiniPure Goat Anti-Mouse IgG (H+L); (Jackson ImnnunoResearch Lab).
Plates were washed and 100 μL per well of 1-Step Ultra TMB substrate (Thermo Scientific) was added and incubated for 5 minutes at room temperature. Reactions were stopped with 100 μL of 2 M sulfuric acid and absorbance read at 450 nm (Spectramax M5e).

binding result	Binder
no binding (tested: 10 ug/ml)	B1
no binding (tested: 10 ug/ml)	B2
no binding (tested: 10 ug/ml)	B3
no binding (tested: 10 ug/ml)	B4
no binding (tested: 10 ug/ml)	B5

Molecular target: T2, cynomolgus monkey E-selectin, …
Assay: flow cytometry, CHO cells
Procedure: Cells were maintained in growth medium at 37° C., 5% CO₂ and 95% air in a humidified incubator. Methotrexate or Zeocin were removed from the medium prior to culture for experiments. CHO-E selectin cells or P-selectin cells were detached from T-150 flasks using citric saline (135 mM KCl, 15 mM sodium citrate) and immediately re-calcified with the addition of CaCl₂) to the detached cells to a final concentration of 1 mM. Growth media was immediately added to the detached cells, then centrifuged at 300×g for 5 minutes at room temperature to pellet the cells. Cells were plated into 96-well V-bottom plates in cold CHO buffer consisting of phosphate buffered saline (PBS), pH 7.4 containing bovine serum albumin (BSA; Sigma-Aldrich) at final concentration of 1%, calcium chloride at final concentration of 1 mM, and sodium azide at a final concentration of 0.1%, for 5 minutes on wet ice. After incubation, the cells were centrifuged at 300×g for 2 minutes at 4° C. to remove the buffer.
After incubation, antibodies were removed and the cells were washed three times by centrifugation at 300×g for 1 minute at 4° C. and resuspended in cold CHO buffer. The washed cells were incubated for 30 minutes on wet ice with 100 μL of a 1:1000 dilution of APC-conjugated AffiniPure F(ab′)₂ Fragment Goat Anti-human IgG, Fcγ (Jackson Imnnunoresearch). The cells were washed three or four times prior to resuspension in CHO buffer for flow cytometric analysis. A Becton Dickinson LSRFortessa instrument using 640 nanometer laser line was used to acquire cell fluorescence data. Geometric mean fluorescence of cells was analyzed by FlowJo software package (FlowJo, LLC) and plotted against antibody concentration. The estimated EC₅₀ values were calculated using nonlinear regression analysis in the Prism suite (GraphPad, version 8) (Table 8).

EC50 [nM]	Binder
3.66	B6
1.73	B7
3.37	B8
3.76	B9
14	B10
4.07	B11
